We go through 1 substance from PMC13185593.

This data set deals with HuR. As to the kind of experiment: SPR. The conditions noted are these: SPR: 25 mM Tris pH 7.5, 100 mM KCl, 7 mM b-mercaptoethanol, 10% glycerol, 25 C, UV crosslinking: 5 mM HEPES pH 7.6, 25 mM KCl, 2 mM MgCl2, 3.8% glycerol.

The Kd is the equilibrium constant for the complex coming apart. SARS-CoV-2 5'-UTR WT, biotin (SPR) had a Kd of 32.5 nM.
